Article PMC5606850, “Acidic C-terminal domains autoregulate the RNA chaperone Hfq” (eLife, 2017)
*: point of attachment. FITC = O=C1OC2(c3ccc(O)cc3Oc3cc(O)ccc32)c2ccc(NC(=S)*)cc21; Ahx = NCCCCCC(=O)O

How the values were obtained:
[1] = protein stability of Hfq65-K3 mutants; type: physicochemical, E. coli
Hfq102·pUC19 complex = experiment: RNA or DNA competition of Hfq102·pUC19 complexes, EMSA; type: binding, E. coli
Experimental: Figure 5. CTD and RNAs inhibit DNA binding to Hfq by obstructing the basic rim patch. (A, B) Agarose gel electrophoretic mobility shift assays of 0–3.3 μM hexamer Hfq102, Hfq102-R16A, Hfq65 or Hfq65-R16A binding to 6 nM linear pUC19 DNA ([…]) at 25°C, stained with SYBR Gold. Hfq65 forms large aggregates that fail to enter the gel (Figure 5—figure supplement 1). (C, D) Line densitometry of DNA migration in (A, B). Free pUC19 (no Hfq) is shown in light grey. Samples with increasing Hfq concentration are shown in darker shades of grey. (E, F) RNA competition. Complexes of 0.5 μM Hfq102 hexamer and 6 nM linear pUC19 (black) were challenged by 0–2 μM RNA or DNA competitor (darker shades of red). pUC19 control in the absence of Hfq is shown in light grey. […] Digestion of Hfq65 and Hfq65-R16A with Proteinase K liberates DNA from Hfq•DNA aggregates, allowing it to be detected (lanes 9 and 10). […] The small proportion of Hfq65·DNA complexes remaining in the supernatant were only detected in the gel after treatment with salt. […]
Samples (10 µL) containing linear pUC19 (0.145 nmol bp), 0–3.333 µM Hfq hexamer, in 40 mM Tris-HCl pH 7.5, 0.14 mM EDTA, 35 mM NH4Cl, 3.7% (v/v) glycerol, 0.05% (w/v) bromophenol blue were incubated at 25°C for 30 min. […] The fluorescence intensity was measured on a line from the bottom edge of the well through the middle of the lane to visualize the migration of pUC19. […]

[2] = molecular target: T1, Hfq65 (Hfq core, CTD deleted) (Escherichia coli, UniProt P0A6X3 1-65); experiment: fluorescence anisotropy; Hill 0.6; asterisked value, footnote not in material (possibly earlier work); Anisotropy: 10 mM Tris-HCl pH 7.5, 50 mM NaCl, 50 mM KCl, 30 C; CTD-FITC competition: 50 mM Tris-HCl pH 7.5, 30 C; pUC19 EMSA: 40 mM Tris-HCl pH 7.5, 0.14 mM EDTA, 35 mM NH4Cl, 3.7% glycerol, 25 C (competition legend 30 C); details: protein: recombinant; tags: untagged; chain copies: 6; label: 5' FAM
Hfq102 (wild-type Hfq) [3] = molecular target: T2, Hfq102 (wild-type Hfq) (Escherichia coli, UniProt P0A6X3 1-102); experiment: fluorescence anisotropy; Hill 0.7; asterisked value, footnote not in material (possibly earlier work); Anisotropy: 10 mM Tris-HCl pH 7.5, 50 mM NaCl, 50 mM KCl, 30 C; CTD-FITC competition: 50 mM Tris-HCl pH 7.5, 30 C; pUC19 EMSA: 40 mM Tris-HCl pH 7.5, 0.14 mM EDTA, 35 mM NH4Cl, 3.7% glycerol, 25 C (competition legend 30 C); details: protein: recombinant; tags: untagged; chain copies: 6; label: 5' FAM
[4] = molecular target: T3, E. coli Hfq65 (Hfq core; truncated variant lacking the CTD) (E. coli, UniProt P0A6X3 1-65); experiment: fluorescence polarisation; 45 nM FITC-labelled peptide titrated with Hfq65 or variant (0–100 µM Hfq monomer), 50 mM Tris·HCl pH 7.5 (low salt), 30 °C, duplicate, single-site isotherm; Kd in Hfq monomer; details: both partners purified
T3 construct: Untagged; Forms a homohexameric ring; also called core Hfq; Hfq65 core

E. coli Hfq65-R19D = molecular target: T4, E. coli Hfq65-R19D (E. coli, UniProt P0A6X3 1-65, R19D); experiment: as above; details: both partners purified
T4 construct: Hfq, E. coli, core residues 1-65, rim mutation R19D; Untagged; made by site-directed mutagenesis of pET21b-Hfq

E. coli Hfq65-K47A = molecular target: T5, E. coli Hfq65-K47A (E. coli, UniProt P0A6X3 1-65, K47A); experiment: as above; details: both partners purified
T5 construct: Hfq, E. coli, core residues 1-65, rim mutation K47A; Untagged; made by site-directed mutagenesis of pET21b-Hfq

E. coli Hfq65-R16A = molecular target: T6, E. coli Hfq65-R16A (E. coli, UniProt P0A6X3 1-65, R16A); experiment: as above; details: both partners purified
T6 construct: Hfq, E. coli, core residues 1-65, rim mutation R16A; Untagged; made by site-directed mutagenesis of pET21b-Hfq

E. coli Hfq65-Q35A = molecular target: T7, E. coli Hfq65-Q35A (E. coli, UniProt P0A6X3 1-65, Q35A); experiment: as above; details: both partners purified
T7 construct: Hfq, E. coli, core residues 1-65, mutation Q35A; Untagged; made by site-directed mutagenesis of pET21b-Hfq

Hfq102 (wild-type Hfq) [5] = molecular target: T2, Hfq102 (wild-type Hfq); experiment: competition; vs pUC19 EMSA; good; Anisotropy: 10 mM Tris-HCl pH 7.5, 50 mM NaCl, 50 mM KCl, 30 C; CTD-FITC competition: 50 mM Tris-HCl pH 7.5, 30 C; pUC19 EMSA: 40 mM Tris-HCl pH 7.5, 0.14 mM EDTA, 35 mM NH4Cl, 3.7% glycerol, 25 C (competition legend 30 C); details: protein: recombinant; tags: untagged; chain copies: 6
Hfq102 (wild-type Hfq) [6] = molecular target: T2, Hfq102 (wild-type Hfq); experiment: competition; vs pUC19 EMSA; strong; Anisotropy: 10 mM Tris-HCl pH 7.5, 50 mM NaCl, 50 mM KCl, 30 C; CTD-FITC competition: 50 mM Tris-HCl pH 7.5, 30 C; pUC19 EMSA: 40 mM Tris-HCl pH 7.5, 0.14 mM EDTA, 35 mM NH4Cl, 3.7% glycerol, 25 C (competition legend 30 C); details: protein: recombinant; tags: untagged; chain copies: 6
Hfq102 (wild-type Hfq) [7] = molecular target: T2, Hfq102 (wild-type Hfq); experiment: fluorescence anisotropy; Hill 1.2; Anisotropy: 10 mM Tris-HCl pH 7.5, 50 mM NaCl, 50 mM KCl, 30 C; CTD-FITC competition: 50 mM Tris-HCl pH 7.5, 30 C; pUC19 EMSA: 40 mM Tris-HCl pH 7.5, 0.14 mM EDTA, 35 mM NH4Cl, 3.7% glycerol, 25 C (competition legend 30 C); details: protein: recombinant; tags: untagged; chain copies: 6; label: 5' FAM on strand 1; blunt
[8] = molecular target: T1, Hfq65 (Hfq core, CTD deleted); experiment: competition; displaces CTD-FITC peptide; stronger than length trend; Anisotropy: 10 mM Tris-HCl pH 7.5, 50 mM NaCl, 50 mM KCl, 30 C; CTD-FITC competition: 50 mM Tris-HCl pH 7.5, 30 C; pUC19 EMSA: 40 mM Tris-HCl pH 7.5, 0.14 mM EDTA, 35 mM NH4Cl, 3.7% glycerol, 25 C (competition legend 30 C); details: protein: recombinant; tags: untagged; chain copies: 6; minRCRB-like hairpin at 5' end

Hfq65-K3Q
formation of stable protein [1]: neither Hfq65-K3S nor Hfq65-K3Q formed stable proteins

Hfq65-K3S
formation of stable protein [1]: neither Hfq65-K3S nor Hfq65-K3Q formed stable proteins

B1: RyhB: sRNA, transcribed in vitro (nucleic acid)
chain: GGGCGAUCAGGAAGACCCUCGAGGAGAACCUGAAAGCACGACAUUGCUCACAUUGCUUCCAGUAUUACUUAGCCAGCCGGGUGCUGGCUUUUU
modifications: unmodified RNA
notes: sRNA, transcribed in vitro
competition against pUC19 DNA for binding to Hfq102 (Hfq102·pUC19 complex): strongest competitors

B2: ChiX: Class II sRNA, transcribed in vitro (nucleic acid)
chain: GGGACACCGUCGCUUAAAGUGACGGCAUAAUAAUAAAAAAAUGAAAUUCCUCUUUGACGGGCCAAUAGCGAUAUUGGCCAUUUUUUU
modifications: unmodified RNA
notes: Class II sRNA, transcribed in vitro
competition against pUC19 DNA for binding to Hfq102 (Hfq102·pUC19 complex): strongest competitors

CGAAUUUUUUAAGUGC (ssRNA) [D16-FAM]
Kd [2]: 20 ± 1.3 nM hexamer
Kd (Hfq102 (wild-type Hfq) [3]): 15.5 ± 0.9 nM hexamer

B3: BsCTD-FITC (B. subtilis Hfq CTD peptide) (peptide)
peptide: {FITC-Ahx}-QLELE-OH
SMILES: CC(C)C[C@H](NC(=O)[C@H](CCC(=O)O)NC(=O)[C@H](CC(C)C)NC(=O)[C@H](CCC(N)=O)NC(=O)CCCCCNC(=S)Nc1ccc2c(c1)C(=O)OC21c2ccc(O)cc2Oc2cc(O)ccc21)C(=O)N[C@@H](CCC(=O)O)C(=O)O
notes: Hfq, Bacillus subtilis, C-terminal end of the CTD; also called BsCTD-FITC peptide
Kd [4]: 8.7 µM

B4: CTD-FITC (fluorescently-labeled E. coli Hfq CTD peptide) (peptide)
peptide: {FITC-Ahx}-NNAGGGTSSNYHHGSSAQNTSAQQDSEETE-OH
notes: Hfq, E. coli, C-terminal domain peptide; lacks residues 65-72 of the CTD region; also called CTD-FITC peptide
binding result (E. coli Hfq65-R19D): binds
binding result (E. coli Hfq65-K47A): binds
binding result (E. coli Hfq65-R16A): binds
binding result (E. coli Hfq65-Q35A): binds

GUGGUCAGUCGAGUGGUUUUUU (ssRNA) [Target-U6]
binding result (Hfq102 (wild-type Hfq) [5]): binds

GUGGUCAGUCGAGUGGAAAAAAAAAAAAAAAAAA (ssRNA) [Target-A18]
binding result (Hfq102 (wild-type Hfq) [6]): binds

B5: D16-FAM·R16 (dsRNA)
RNA 1: CGAAUUUUUUAAGUGC
RNA 2: GCACUUAAAAAAUUCG
Kd (Hfq102 (wild-type Hfq) [7]): 117 ± 12 nM hexamer

TATCCGTATGACGTTCCGGACTATGCGGCTAAGGGGCAATCTTTAC (structured_DNA) [DNA1]
binding result [8]: binds
